Measured values reported in article PMC3229578, “Brachyury and Related Tbx Proteins Interact with the Mixl1 Homeodomain Protein and Negatively Regulate Mixl1 Transcriptional Activity” (PLoS ONE, 2011).

Columns and labels:
Assay in all cases: pull-down; bacterially made, purified His-Brachyury derivatives incubated with GST-Mixl1 derivatives or GST alone on glutathione beads in ELB150 buffer, 4°C, 3 h; washed in ELB300 (0.3 M KCl); Western blot with anti-T N19
Settings in all cases: both partners purified
[1] = target: T1, His-mBrachyury (mouse, UniProt P20293 1-436)
T1 construct: Brachyury (T), mouse; in pET15b by Gateway cloning; also called mT; recombinant His-tagged T protein; source: E. coli BL21 RIPL(DE3), purified (Talon resin)
T1 sequence (looked up): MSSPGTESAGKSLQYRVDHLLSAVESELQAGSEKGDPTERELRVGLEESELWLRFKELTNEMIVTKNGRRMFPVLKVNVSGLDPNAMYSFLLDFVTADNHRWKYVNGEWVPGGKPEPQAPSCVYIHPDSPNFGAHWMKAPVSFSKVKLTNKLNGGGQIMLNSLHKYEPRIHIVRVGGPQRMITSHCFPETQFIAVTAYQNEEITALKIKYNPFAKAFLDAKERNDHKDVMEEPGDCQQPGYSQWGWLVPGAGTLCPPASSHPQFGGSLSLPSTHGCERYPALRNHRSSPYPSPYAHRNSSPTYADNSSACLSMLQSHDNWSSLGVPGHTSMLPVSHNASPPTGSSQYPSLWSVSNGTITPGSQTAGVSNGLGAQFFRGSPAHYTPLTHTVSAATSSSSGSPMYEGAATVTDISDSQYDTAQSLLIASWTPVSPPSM

[2] = target: T2, His-hBrachyury (human, UniProt O15178 1-435)
T2 construct: Brachyury (T), human; in pET15b by Gateway cloning; also called hT; pET15b-hBrachyury; source: E. coli BL21 RIPL(DE3), purified (Talon resin)
T2 sequence (looked up): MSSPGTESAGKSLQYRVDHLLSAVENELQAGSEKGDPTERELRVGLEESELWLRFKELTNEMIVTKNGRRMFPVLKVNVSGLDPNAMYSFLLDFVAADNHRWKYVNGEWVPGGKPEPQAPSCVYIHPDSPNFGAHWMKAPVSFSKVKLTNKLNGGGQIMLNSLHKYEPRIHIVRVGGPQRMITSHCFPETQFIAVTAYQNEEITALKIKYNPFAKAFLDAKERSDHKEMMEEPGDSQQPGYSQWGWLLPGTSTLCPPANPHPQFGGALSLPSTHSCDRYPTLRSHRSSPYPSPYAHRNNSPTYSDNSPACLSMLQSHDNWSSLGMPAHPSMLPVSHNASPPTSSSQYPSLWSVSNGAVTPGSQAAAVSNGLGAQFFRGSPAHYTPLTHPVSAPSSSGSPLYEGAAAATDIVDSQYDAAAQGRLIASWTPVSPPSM

[3] = target: T3, His mT-box (mouse, UniProt P20293 1-230)
T3 construct: Brachyury (T), mouse, T-box domain aa 1-230; also called His-Brachyury T-box domain; T-box domain (aa 1–230) of Brachyury; source: E. coli BL21 RIPL(DE3), purified (Talon resin)
T3 sequence (looked up): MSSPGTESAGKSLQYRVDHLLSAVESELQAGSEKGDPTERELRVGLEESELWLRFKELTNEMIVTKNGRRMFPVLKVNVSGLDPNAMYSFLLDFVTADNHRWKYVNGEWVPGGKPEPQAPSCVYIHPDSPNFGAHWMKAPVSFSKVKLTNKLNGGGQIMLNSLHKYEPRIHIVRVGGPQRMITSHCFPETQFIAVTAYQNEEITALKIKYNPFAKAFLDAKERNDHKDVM

B1: GST-mMixl1 (bacterial) (natural protein)
chain: not shown
notes: Mixl1 homeodomain protein, mouse; in pGEX2T by Gateway cloning; also called recombinant GST mMixl1; pGEX-mMixl1; source: E. coli BL21 RIPL(DE3), purified (glutathione agarose)
- binding result [1]: binds

B2: GST-hMixl1 (natural protein)
chain: not shown
notes: MIXL1, the human ortholog of Mixl1; in pGEX2T by Gateway cloning; also called pGEX-hMixl1; source: E. coli BL21 RIPL(DE3), purified (glutathione agarose)
- binding result [2]: binds

B3: GST mMixl1 HD (domain or fragment)
chain: not shown
notes: Made as one of the 'GST-Mixl1 derivatives' of the methods; source: E. coli BL21 RIPL(DE3), purified (glutathione agarose)
- binding result [3]: binds
